Patent US20240376207A1
Where two headings read alike, the source gives them in different places.

Assays:
Experiment in all cases: cell-based or functional assay
[1] = biological target: human PVRIG expressed on cells (human) (UniProt Q6DKI7)
[2] = biological target: human PVRIG expressed on cells (human) (UniProt Q6DKI7); remark: listed apart in the source
[3] = biological target: human PVRIG expressed on cells (human) (UniProt Q6DKI7); remark: listed apart in the source

Sequence of human PVRIG expressed on cells (human) (Q6DKI7 41-326 limits assumed, form in doubt): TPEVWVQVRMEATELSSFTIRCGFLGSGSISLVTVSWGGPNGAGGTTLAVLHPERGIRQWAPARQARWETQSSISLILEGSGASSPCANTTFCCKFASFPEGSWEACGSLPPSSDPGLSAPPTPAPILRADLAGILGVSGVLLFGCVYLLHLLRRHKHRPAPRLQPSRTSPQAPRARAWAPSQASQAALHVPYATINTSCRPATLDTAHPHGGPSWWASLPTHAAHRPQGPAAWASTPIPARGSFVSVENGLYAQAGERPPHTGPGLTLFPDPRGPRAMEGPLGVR

MLR IFNγ (pg/mL), 4 nM antibody (control baseline) [1]: 984 pg/mL | MLR IFNγ (pg/mL), 20 nM antibody (control baseline) [1]: 814 pg/mL | MLR IFNγ (pg/mL), 100 nM antibody (control baseline) [1]: 1310 pg/mL | MLR IFNγ (pg/mL), 20 nM antibody (control baseline) [2]: 74 pg/mL | MLR IFNγ (pg/mL), 100 nM antibody (control baseline) [2]: 89 pg/mL
Substance: IgG4 (control antibody)
NK92 killing of K562, killing activity (%), 20 nM antibody (control baseline) [1]: 22% | NK92 killing of K562, killing activity (%), 100 nM antibody (control baseline) [1]: 22% | NK92 killing of K562, killing activity (%), 4 nM antibody (control baseline) [3]: 11.2% | NK92 killing of K562, killing activity (%), 20 nM antibody (control baseline) [3]: 11.7% | NK92 killing of K562, killing activity (%), 100 nM antibody (control baseline) [3]: 9.2%
